Key:
[1] = target: T1, Human FOLR1 Protein His Tag (ACRO-FO1-H52H1) (human, UniProt P15328 25-233); experiment: ELISA, supernatant diluted 1x
T1 construct: not shown: His tag

[2] = target: T2, Cynomolgus/Rhesus macaque FOLR1 Protein, His Tag (ACRO, F01-C52H8) (cynomolgus, UniProt A0A2K5U044 25-233); experiment: ELISA, supernatant diluted 1x
T2 construct: also called cynomolgus FOLR1 protein; not shown: His tag

[3] = target: T1, Human FOLR1 Protein His Tag …; experiment: ELISA, supernatant diluted 5x
[4] = target: T2, Cynomolgus/Rhesus macaque FOLR1 …; experiment: ELISA, supernatant diluted 5x
[5] = target: T1, Human FOLR1 Protein His Tag …; experiment: ELISA, supernatant diluted 25x
[6] = target: T2, Cynomolgus/Rhesus macaque FOLR1 …; experiment: ELISA, supernatant diluted 25x
[7] = target: T1, Human FOLR1 Protein His Tag …; experiment: ELISA, HEK293 supernatant on coated antigen

T2 sequence (A0A2K5U044 entry or part of it): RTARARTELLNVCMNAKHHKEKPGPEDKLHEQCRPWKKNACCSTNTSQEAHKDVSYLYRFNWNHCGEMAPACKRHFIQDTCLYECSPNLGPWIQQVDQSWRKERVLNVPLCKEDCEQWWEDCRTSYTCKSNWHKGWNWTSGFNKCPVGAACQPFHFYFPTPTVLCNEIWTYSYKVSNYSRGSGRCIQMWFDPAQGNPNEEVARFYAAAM
T1 sequence (P15328 25-233 limits assumed): as the sequence (A0A2K5U044 entry or part of it) above, with T2I, R4W, K37R, P146A, Y171H counted along it

Binder	OD450 [1]	OD450 [2]	OD450 [3]	OD450 [4]	OD450 [5]	OD450 [6]	OD450 [7]
F1 (antibody, V domains shown, also called clone F1; anti-FOLR1 antibody F1) VH: EVQLLESGGGVVQPGRSLRLSCAASGFTFSSYGMHWVRQAPGKGLEWVAVISYDGSNKYYADSVKGRFTISRDNSKNTLYLQMNSLRAEDTAVYYCARPRAYYGAYGSSFDYWGQGTQVTVSS VL: EIVMTQSPSSVSASVGDRVAITCRASQGISSWLAWYQQKPGKAPKLLIYAASSLQSGVPSRFSGSGSGTDFTLTISSLQPEDFATYYCQQSYSTPLTFGGGTKVDIK	1.66	1.38	1.45	1.26	1.18	0.994	2.43
F40 (antibody, V domains shown, also called clone F40; anti-FOLR1 antibody F40) VH: EVQLLESGGGVVQPGRSLRLSCAASGFTFSSYAMHWVRQAPGKGLEWVAVISYDGSNKYYADSVKGRFIISRDNSKNTVYLQMNSLRAEDTAVYYCARPTYVFTYTGSSFDYWGQGTQVTVSS VL: DIQVTQSPSSLSASLGDTVSITCRASRGLTDSVAWYQQKPGQAPKLLIYAASTLQSGVPSRFGGSGSGSYFTLTITSLQPEDVATYYCQNYKSAPWTFGQGTKVEIK	0.811	1.35	0.382	1.11	0.163	0.924	2.39
F26 (antibody, V domains shown, also called clone F26; anti-FOLR1 antibody F26) VH: EVQLLESGGGVVQRGRSLRLSCAASGFTFSSYGMHWVRQAPGKGLEWVAVISYDGSNKYYADSVKGRFTISRDNSKNTLYLPMNSLRAEDTAVYYCARPRAYYGAYGSSFDYWGQGTQVTVSS VL: EIVMTQSPSSVSASVGDRVAITCRASQGISSWLAWYQQKPGKAPKLLIYAASSLQSGVPSRFSGSGSGTDFTLTISSLQPEDFATYYCQQSYSTPLTFGGGTKVDIK	1.64	1.24	1.51	1.21	1.48	1.02	2.43
F8 (antibody, V domains shown, also called clone F8; anti-FOLR1 antibody F8) VH: EVQLLESGGGVVQHGRSLRLSCAASGFTFSSYGMHWVRQAPGKGLEWVAVISYDGSNKYYADSVKGRFTISRDNSKNTLYLQMNSLRAEDTAVYYCARPRAYYGAYGSSFDYWGQGTQVTVSS VL: EIVMTQSPSSVSASVGDRVAITCRASQGISSWLAWYQQKPGKAPKLLIYAASSLQSGVPSRFSGSGSGTDFTLTISSLQPEDFATYYCQQSYSTPLTFGGGTKVDIK	1.67	0.896	1.65	1.28	1.31	1.06	2.45
F48 (antibody, V domains shown, also called clone F48; anti-FOLR1 antibody F48) VH: EVQLLESGGGVVQPGRSLRLSCAASGFTFSSYGMHWVRQAPGKGLEWVAVISYDGSNKYYADSVKGRFTISRDNSKNTLYLHMNSLRAEDTAVYYCARPRAYYGAYGSSFDYWGQGTQVTVSS VL: EIVMTQSPSSVSASVGDRVAITCRASQGISSWLAWYQQKPGKAPKLLIYAASSLQSGVPSRFSGSGSGTDFTLTISSLQPEDFATYYCQQSYSTPLTFGGGTKVDIK	1.56	1.15	1.59	1.04	1.29	0.908	2.54

Other lines, results leading:

OD450 [1]	OD450 [2]	OD450 [3]	OD450 [4]	OD450 [5]	OD450 [6]	OD450 [7]	Binder
1.64	1.14	1.69	1.14	0.827	1.17	2.41	F138 (antibody, V domains shown, also called clone F138; anti-FOLR1 antibody F138) VH: EVQLLESGGGVVQPGRSLRLSCAASGFTFSSYGMHWVRQAPGKGLEWVAVISYDGSNKYYADSVKGRFTISTHNSKNTLYLQMNSLRAEDTAVYYCARPRAYYGAYGSSFDYWGQGTQVTVSS VL: EIVMTQSPSSVSASVGDRVAITCRASQGISSWLAWYQQKPGKAPKLLIYAASSLQSGVPSRFSGSGSGTDFTLTISSLQPEDFATYYCQQSYSTPLTFGGGTKVDIK
1.61	1.16	1.53	1.03	1.18	0.875	2.3	F100 (antibody, V domains shown, also called clone F100; anti-FOLR1 antibody F100) VH: EVQLLESGGGVVQPGRSLRLSCAASGFTFSSYGMHWVRQAPGKGLEWVAVISYDGSNKYYADSVKGRFTISRPNSKNTLYLQMNSLRAEDTAVYYCARPRAYYGAYGSSFDYWGQGTQVTVSS VL: EIVMTQSPSSVSASVGDRVAITCRASQGISSWLAWYQQKPGKAPKLLIYAASSLQSGVPSRFSGSGSGTDFTLTISSLQPEDFATYYCQQSYSTPLTFGGGTKVDIK
1.56	1.26	1.42	1.21	1.17	0.933	2.35	F112 (antibody, V domains shown, also called clone F112; anti-FOLR1 antibody F112) VH: EVQLLESGGGVVQPGRSLRLSCAASGFTFSSYGMHWVRQAPGKGLEWVAVISYDGSNKYYADSVKGRFTISRHNSKNTLYLQMNSLRAEDTAVYYCARPRAYYGAYGSSFDYWGQGTQVTVSS VL: EIVMTQSPSSVSASVGDRVAITCRASQGISSWLAWYQQKPGKAPKLLIYAASSLQSGVPSRFSGSGSGTDFTLTISSLQPEDFATYYCQQSYSTPLTFGGGTKVDIK
1.61	1.2	1.52	1.27	1.38	1.09	2.35	F131 (antibody, V domains shown, also called clone F131; F131 mAb) VH: EVQLLESGGGVVQPGRSLRLSCAASGFTFSSYGMHWVRQAPGKGLEWVAVISYDGSNKYYADSVKGRFTISRANSKNTLYLQMNSLRAEDTAVYYCARPRAYYGAYGSSFDYWGQGTQVTVSS VL: EIVMTQSPSSVSASVGDRVAITCRASQGISSWLAWYQQKPGKAPKLLIYAASSLQSGVPSRFSGSGSGTDFTLTISSLQPEDFATYYCQQSYSTPLTFGGGTKVDIK
1.72	1.36	1.47	1.3	1.33	1.07	2.32	F123 (antibody, V domains shown, also called clone F123; anti-FOLR1 antibody F123) VH: EVQLLESGGGVVQPERSLRLSCAASGFTFSSYGMHWVRQAPGKGLEWVAVISYDGSNKYYADSVKGRFTISRANSKNTLYLQMNSLRAEDTAVYYCARPRAYYGAYGSSFDYWGQGTQVTVSS VL: EIVMTQSPSSVSASVGDRVAITCRASQGISSWLAWYQQKPGKAPKLLIYAASSLQSGVPSRFSGSGSGTDFTLTISSLQPEDFATYYCQQSYSTPLTFGGGTKVDIK

From US20240207429A1 (PROFOUNDBIO US, published 2024)
